The target in data set [1] is endogenous α subunits of spinal cord neurons. The experiment in a line: PALM-based single molecule counting; fixed lentivirus-infected spinal cord neurons; bursts of Dendra2 detections counted in 120 nm clusters in sparse areas of the extrasynaptic plasma membrane, binomial fit.
The target of data set [2] is T1, endogenous extrasynaptic GlyRs (labelled by QDs on endogenous GlyRα1) (mouse (endogenous in spinal cord …, UniProt Q64018 29-457; P48168 23-496).
T1 construct: endogenous glycine receptor beta subunit of mouse spinal cord neurons; the discussion calls extrasynaptic GlyRs α3:β2 heteromers; Only the α1 subunit was labelled; also called endogenous GlyRs; receptor complexes; source: endogenous, mouse spinal cord neurons, fixed cells; copies: 3 + 2
T1 sequence (P48168 23-496, one chain of several): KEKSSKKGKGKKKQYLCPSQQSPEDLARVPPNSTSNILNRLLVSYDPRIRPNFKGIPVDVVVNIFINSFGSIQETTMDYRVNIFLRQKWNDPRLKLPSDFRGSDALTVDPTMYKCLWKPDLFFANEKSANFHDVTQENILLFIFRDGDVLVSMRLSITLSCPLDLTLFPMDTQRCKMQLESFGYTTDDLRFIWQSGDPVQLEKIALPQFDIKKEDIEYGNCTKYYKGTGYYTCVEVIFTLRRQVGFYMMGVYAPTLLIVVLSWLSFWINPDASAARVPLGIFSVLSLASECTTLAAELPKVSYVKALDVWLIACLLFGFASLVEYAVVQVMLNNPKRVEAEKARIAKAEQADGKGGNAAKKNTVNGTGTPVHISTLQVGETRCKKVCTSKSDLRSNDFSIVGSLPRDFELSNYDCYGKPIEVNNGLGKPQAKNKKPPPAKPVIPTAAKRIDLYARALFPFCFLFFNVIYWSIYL
The experiment in a line: PALM-based single molecule counting at QD-labelled receptors; fixed mouse spinal cord neurons; endogenous GlyRα1 labelled with mAb2b and Fab'-QD605, mEos2-gephyrin bursts counted at the QD sites in the extrasynaptic membrane. Particulars: partners not purified.

Data set [3] concerns the molecule itself. The experiment in a line: PALM-based single molecule counting; fixed COS-7 cells expressing mEos2-gephyrin; cluster diameter 150 nm, burst length < 60 s, binomial fit.
Data set [4] addresses T2, endogenous GlyRβ subunits of spinal cord neurons ( (endogenous in rat or mouse …, UniProt P20781 23-496)).
T2 construct: endogenous glycine receptor beta subunit of cultured spinal cord neurons; also called endogenous counterparts; source: endogenous, cultured spinal cord neurons, fixed cells
The experiment in a line: PALM-based single molecule counting; fixed lentivirus-infected spinal cord neurons; bursts of Dendra2 detections counted in 120 nm clusters in sparse areas of the extrasynaptic plasma membrane, binomial fit. Conditions: partners not purified.

The target in another data set is T3, untagged GlyRβ (UniProt P48167 23-497).
T3 construct: glycine receptor beta subunit, untagged; also called untagged β subunits; non-fluorescent subunits; source: COS-7, transfected, in cells
T3 sequence (P48167 23-497): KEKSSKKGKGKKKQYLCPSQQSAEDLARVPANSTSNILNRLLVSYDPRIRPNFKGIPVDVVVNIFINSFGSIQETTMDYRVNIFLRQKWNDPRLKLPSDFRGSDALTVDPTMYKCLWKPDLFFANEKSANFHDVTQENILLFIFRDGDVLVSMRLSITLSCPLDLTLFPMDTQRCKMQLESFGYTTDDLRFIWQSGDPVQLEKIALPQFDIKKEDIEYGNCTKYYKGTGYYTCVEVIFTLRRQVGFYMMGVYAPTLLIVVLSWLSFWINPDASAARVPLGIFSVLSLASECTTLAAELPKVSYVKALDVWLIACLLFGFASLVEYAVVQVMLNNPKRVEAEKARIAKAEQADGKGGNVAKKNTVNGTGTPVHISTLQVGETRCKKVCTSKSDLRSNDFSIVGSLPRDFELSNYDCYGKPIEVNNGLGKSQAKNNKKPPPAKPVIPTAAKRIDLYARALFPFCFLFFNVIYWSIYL
The experiment in a line: PALM-based single molecule counting; fixed transfected COS-7 cells; bursts of Dendra2 detections counted in 120 nm clusters, binomial fit; Dendra2-GlyR subunits alone or with untagged subunits. Particulars: partners not purified.

The record followed here is paper PMC5589798, “Alpha subunit-dependent glycine receptor clustering and regulation of synaptic receptor numbers” (Scientific Reports, 2017).

T2 sequence (P20781 23-496): as the sequence (P48168 23-496, one chain of several) above, with P23A counted along it

For orientation: stoichiometry N means a count of units in the complex or per binding partner. As for “Dendra2-GlyRβ (FU-SP-myc-Dendra2-GlyRβ) (from UniProt P48167-1 23-497) (receptor)”, the stoichiometry N in data set [1] was 1.5 α:β (3:2).

B1: mEos2-gephyrin (FU-mEos2-gephyrin) (natural protein, UniProt Q03555 1-768, looked up)
chain: MATEGMILTNHDHQIRVGVLTVSDSCFRNLAEDRSGINLKDLVQDPSLLGGTISAYKIVPDEIEEIKETLIDWCDEKELNLILTTGGTGFAPRDVTPEKFPTFPFCGLQKGATKEVIEREAPGMALAMLMGSLNVTPLGMLSRPVCGIRGKTLIINLPGSKKGSQECFQFILPALPHAIDLLRDAIVKVKEVHDELEDLPSPPPPLSPPPTTSPHKQTEDKGVQCEEEEEEKKDSGVASTEDSSSSHITAAALAAKIPDSIISRGVQVLPRDTASLSTTPSESPRAQATSRLSTASCPTPKQIRRPDESKGVASRVGSLKVQSRCSSKENILRASHSAVDITKVARRHRMSPFPLTSMDKAFITVLEMTPVLGTEIINYRDGMGRVLAQDVYAKDNLPPFPASVKDGYAVRAADGPGDRFIIGESQAGEQPTQTVMPGQVMRVTTGAPIPCGADAVVQVEDTELIRESDDGTEELEVRILVQARPGQDIRPIGHDIKRGECVLAKGTHMGPSEIGLLATVGVTEVEVNKFPVVAVMSTGNELLNPEDDLLPGKIRDSNRSTLLATIQEHGYPTINLGIVGDNPDDLLNALNEGISRADVIITSGGVSMGEKDYLKQVLDIDLHAQIHFGRVFMKPGLPTTFATLDIDGVRKIIFALPGNPVSAVVTCNLFVVPALRKMQGILDPRPTIIKARLSCDVKLDPRPEYHRCILTWHHQEPLPWAQSTGNQMSSRLMSMRSANGLLMLPPKTEQYVELHKGEVVDVMVIGRL
notes: gephyrin; neither species nor isoform is stated; In neurons, endogenous gephyrin is also present and dilutes the detected mEos2-gephyrin; source: COS-7, transfected, in cells; spinal cord neurons, lentivirus infected, in cells
In the case of B1, the “stoichiometry N” value in data set [2] was 1 gephyrin trimer per receptor complex; in data set [3] it was 3.

B2: Dendra2-GlyRα1 (FU-SP-myc-Dendra2-GlyRα1) (receptor, rat, UniProt P07727-1 29-457, looked up)
chain: ARSAPKPMSPSDFLDKLMGRTSGYDARIRPNFKGPPVNVSCNIFINSFGSIAETTMDYRVNIFLRQQWNDPRLAYNEYPDDSLDLDPSMLDSIWKPDLFFANEKGAHFHEITTDNKLLRISRNGNVLYSIRITLTLACPMDLKNFPMDVQTCIMQLESFGYTMNDLIFEWQEQGAVQVADGLTLPQFILKEEKDLRYCTKHYNTGKFTCIEARFHLERQMGYYLIQMYIPSLLIVILSWISFWINMDAAPARVGLGITTVLTMTTQSSGSRASLPKVSYVKAIDIWMAVCLLFVFSALLEYAAVNFVSRQHKELLRFRRKRRHHKSPMLNLFQDDEGGEGRFNFSAYGMGPACLQAKDGISVKGANNNNTTNPAPAPSKSPEEMRKLFIQRAKKIDKISRIGFPMAFLIFNMFYWIIYKIVRREDVHNK
notes: rat glycine receptor alpha-1 subunit, isoform a; Five copies hold for the homomeric receptor (expressed alone in COS-7); also called homomeric Dendra2-GlyRα1; source: COS-7, transfected (FuGENE 6), in cells; spinal cord neurons, lentivirus infected, in cells; not shown: myc, N-terminal, kept; Dendra2, N-terminal, kept
For B2, the “stoichiometry N” value in data set [4] was 1.5 α:β (3:2).

B3: Dendra2-GlyRα3 (FU-SP-myc-Dendra2-GlyRα3L) (receptor, human, UniProt O75311-1 34-464, looked up)
chain: ARSRSAPMSPSDFLDKLMGRTSGYDARIRPNFKGPPVNVTCNIFINSFGSIAETTMDYRVNIFLRQKWNDPRLAYSEYPDDSLDLDPSMLDSIWKPDLFFANEKGANFHEVTTDNKLLRIFKNGNVLYSIRLTLTLSCPMDLKNFPMDVQTCIMQLESFGYTMNDLIFEWQDEAPVQVAEGLTLPQFLLKEEKDLRYCTKHYNTGKFTCIEVRFHLERQMGYYLIQMYIPSLLIVILSWVSFWINMDAAPARVALGITTVLTMTTQSSGSRASLPKVSYVKAIDIWMAVCLLFVFSALLEYAAVNFVSRQHKELLRFRRKRKNKTEAFALEKFYRFSDMDDEVRESRFSFTAYGMGPCLQAKDGMTPKGPNHPVQVMPKSPDEMRKVFIDRAKKIDTISRACFPLAFLIFNIFYWVIYKILRHEDIHQQQD
notes: human glycine receptor alpha-3 subunit, long isoform (α3L); Five copies hold for the homomeric receptor (expressed alone in COS-7); also called homomeric Dendra2-GlyRα3; source: COS-7, transfected (FuGENE 6), in cells; spinal cord neurons, lentivirus infected, in cells; not shown: myc, N-terminal, kept; Dendra2, N-terminal, kept
B3: the figures for the “stoichiometry N” value (in data set [4]; with untagged GlyRβ) were 1.5 α:β (3:2) and 3 α3 subunits per complex, respectively.
